The values that follow come from patent publication US20090208491A1 (published 2009).

The target of assay [1] is Notch1 antigen protein (amino acids 1-220 of human Notch1 with human Fc-tag or histidine-tag) (human) (UniProt P46531). Nature of the assay: Biacore, binding to Notch1 antigen.
Assay [2] has as its target T1, Notch1 antigen protein (amino acids 1-220 of human Notch1 with human Fc-tag or histidine-tag) (human, UniProt P46531 19-220).
T1 construct: range 19-220; Made in insect cells with baculovirus; also called Notch1 antigen corresponding to EGF repeats 1-5; not shown: C-terminal human Fc-tag or histidine-tag
T1 sequence (looked up): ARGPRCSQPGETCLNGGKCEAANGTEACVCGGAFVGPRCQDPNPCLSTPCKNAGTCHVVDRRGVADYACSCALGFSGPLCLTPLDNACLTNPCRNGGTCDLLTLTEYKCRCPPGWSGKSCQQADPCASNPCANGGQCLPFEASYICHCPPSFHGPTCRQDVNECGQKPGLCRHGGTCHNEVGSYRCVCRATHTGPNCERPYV
Nature of the assay: ELISA of HEK 293 conditioned media on Notch1 antigen; heavy chain cotransfected with the murine 13M57 light chain. As for the experimental part: The functionality of each candidate variant humanized heavy and light chain was tested by cotransfection into mammalian cells. Each of the eleven candidate humanized 13M57 heavy chains described above was cotransfected with the murine 13M57 light chain cDNA into HEK 293 cells, and conditioned media was then assayed for Notch1 antigen binding activity by ELISA. […] This variant—“13M57H5”—contained, in additional to murine CDRs, murine residues at five framework positions, Kabat positions 44, 46, 49, 89, and 93 (FIG. 3). The 13M57H5 humanized heavy chain was then cotransfected with each of the eleven candidate humanized light chains into HEK293 cells, and conditioned media was again assayed for antigen binding by ELISA. […] To evaluate the importance of the individual murine residues in 13M57 L5 and 13M57 L6, a farther series of candidate variant light chains were synthesized that combined one or more of the murine residues at Kabat positions 42-45 and 89-90. These candidate variant light chains were then tested as described above.

Assay [3] deals with T1, Notch1 antigen protein (amino acids …). Nature of the assay: Biacore, binding to Notch1 antigen. From the text: The two best humanized 13M57 antibodies (13M57H5 L6 and 13M57H5 L21) were then further characterized. The humanized 13M57 antibodies were purified using protein A chromatography.

Residue numbers refer to the chain shown, from its start.

B1: murine monoclonal antibody 13M57 (antibody, from another filing, V domains shown)
VH: EVNLVESGGDLVQPGGSLRLSCAASGFTFSSYTMSWVRQTPEKRLEWVAYIDYGGDFTSYSDAIRGRFTISRDNAKNTLYLQMSSLKSEDTAIYYCSRRRYDAMDYWGQGTSVIVSS
VL: DIQMTQSTSSLSASLGDRVTVSCSASQAISNYLNWYQQKPDGTLKLLIYYTTNLHSGVPSRFSGSGSGTDYSLTISNLEPEDIATYYCQQYSKFPWTFGGGTKLEIKR
The molecule B1 yielded a Kd in assay [1] of 0.05 nM.

B2: 13M57H5 humanized heavy chain cotransfected with the murine 13M57 light chain (antibody, human IgG2, V domains shown)
VH: B1 VH with N3Q, D10G, T40A, E42G, S84N, K87R, S88A, S112L, I114T
VL: DIQMTQSTSSLSASLGDRVTVSCSASQAISNYLNWYQQKPDGTLKLLIYYTTNLHSGVPSRFSGSGSGTDYSLTISNLEPEDIATYYCQQYSKFPWTFGGGTKLEIK
notes: Heavy chain fused to the human IgG2 constant region; tested as conditioned medium from HEK 293 cells
As for B2, in assay [2], the binding result is listed as “binds”.

B3: humanized 13M57H5L6 antibody (antibody, human IgG2, V domains shown)
VH: B1 VH with N3Q, D10G, T40A, E42G, S84N, K87R, S88A, S112L, I114T
VL: DIQMTQSPSSLSASVGDRVTITCSASQAISNYLNWYQQKPGKAPKLLIYYTTNLHSGVPSRFSGSGSGTDYSFTISSLQPEDIATYYCQQYSKFPWTFGGGTKVEIKR
notes: Variant heavy chains were fused in-frame to the human IgG2 constant region; also called 13M57 L6H5; humanized L6H5 13M57
B3 showed a Kd in assay [3] of approximately 0.08 nM.

B4: humanized 13M57H5L21 antibody (antibody, human IgG2, V domains shown)
VH: B1 VH with N3Q, D10G, T40A, E42G, S84N, K87R, S88A, S112L, I114T
VL: B3 VL with G41D, K42G, A43T, P44L
notes: Human IgG2 heavy chain constant region; also called 13M57 L21H5; ATCC PTA-8424
B4 showed a Kd in assay [3] of approximately 0.1 nM.
